Measurements taken from paper PMC13071878 (Journal of Medicinal Chemistry, 2026).
Bridges are numbered along the chain shown (N, C = ends). Where no end group is shown, it is not given here.

Columns and labels:
[1] = target: T1, human angiotensin-converting enzyme 1 (hACE1) (human, UniProt P12821 30-1256); assay: enzyme inhibition assay; 0.25 nM hACE1, 10 uM fluorogenic substrate Mca-Arg-Pro-Pro-Gly-Phe-Ser-Ala-Phe-Lys(Dnp)-OH, dilutions of inhibitor; 10 mM Tris-HCl pH 7.4, 300 mM NaCl, 100 uM ZnCl2, 0.1% BSA, 0.1% DMSO; conditions: both partners purified
T1 sequence (P12821 30-1256): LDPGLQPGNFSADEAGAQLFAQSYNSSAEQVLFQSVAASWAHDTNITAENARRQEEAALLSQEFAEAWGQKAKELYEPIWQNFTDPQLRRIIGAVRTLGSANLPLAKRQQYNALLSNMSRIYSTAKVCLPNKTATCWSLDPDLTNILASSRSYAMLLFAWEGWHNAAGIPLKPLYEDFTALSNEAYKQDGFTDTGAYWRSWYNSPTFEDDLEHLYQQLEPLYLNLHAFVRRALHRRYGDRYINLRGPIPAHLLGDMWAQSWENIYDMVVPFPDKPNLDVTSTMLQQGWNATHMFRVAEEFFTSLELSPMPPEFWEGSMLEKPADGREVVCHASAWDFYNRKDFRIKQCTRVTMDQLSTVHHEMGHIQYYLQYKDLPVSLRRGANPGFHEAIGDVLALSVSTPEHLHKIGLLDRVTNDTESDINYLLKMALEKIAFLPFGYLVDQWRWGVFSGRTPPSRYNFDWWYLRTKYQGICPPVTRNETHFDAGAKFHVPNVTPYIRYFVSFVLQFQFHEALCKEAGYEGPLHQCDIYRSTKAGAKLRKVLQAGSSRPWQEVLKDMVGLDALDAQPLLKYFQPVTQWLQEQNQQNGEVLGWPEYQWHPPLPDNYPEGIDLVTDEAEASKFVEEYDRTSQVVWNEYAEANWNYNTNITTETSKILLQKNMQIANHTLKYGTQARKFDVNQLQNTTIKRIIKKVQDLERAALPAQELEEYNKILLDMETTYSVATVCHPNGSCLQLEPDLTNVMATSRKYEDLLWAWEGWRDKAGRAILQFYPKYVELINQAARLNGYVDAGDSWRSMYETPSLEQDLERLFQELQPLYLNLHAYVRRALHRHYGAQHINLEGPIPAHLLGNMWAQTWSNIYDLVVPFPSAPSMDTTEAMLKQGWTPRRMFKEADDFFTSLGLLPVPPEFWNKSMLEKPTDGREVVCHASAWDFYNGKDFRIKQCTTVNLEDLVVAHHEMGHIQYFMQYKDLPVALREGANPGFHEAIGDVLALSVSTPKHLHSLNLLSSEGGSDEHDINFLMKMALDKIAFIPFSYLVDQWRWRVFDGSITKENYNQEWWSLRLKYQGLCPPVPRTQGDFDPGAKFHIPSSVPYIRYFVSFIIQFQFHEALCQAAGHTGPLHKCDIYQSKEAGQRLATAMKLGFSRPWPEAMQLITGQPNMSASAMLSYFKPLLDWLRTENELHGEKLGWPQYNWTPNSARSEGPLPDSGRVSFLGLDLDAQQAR

[2] = target: T2, human angiotensin-converting enzyme 1 (human, UniProt P12821 30-1256); assay: enzyme inhibition assay (fluorogenic substrate); 0.25 nM hACE1, 10 μM Mca-Arg-Pro-Pro-Gly-Phe-Ser-Ala-Phe-Lys(Dnp)-OH, MP 0.03 nM to 100 μM; 10 mM Tris-HCl pH 7.4, 300 mM NaCl, 100 μM ZnCl2, 0.1% BSA, 0.1% DMSO; conditions: both partners purified
T2 construct: also called hACE1; human ACE1 enzyme
T2 sequence (P12821 30-1256): as above

[3] = target: T3, biotinylated extracellular catalytic domain of human angiotensin-converting enzyme 2 (hACE2), produced in … (human, UniProt Q9BYF1 19-615); assay: flow cytometry on cells; yeast surface titration: yeast cells displaying the ligand incubated with soluble biotinylated hACE2 (100 pM to 3 uM), at least 1 h, room temperature (25 °C, pH 7.4); binding/display MFI, one-site fit; apparent KD; conditions: one partner purified
T3 construct: also called biotinylated hACE2
T3 sequence (Q9BYF1 19-615): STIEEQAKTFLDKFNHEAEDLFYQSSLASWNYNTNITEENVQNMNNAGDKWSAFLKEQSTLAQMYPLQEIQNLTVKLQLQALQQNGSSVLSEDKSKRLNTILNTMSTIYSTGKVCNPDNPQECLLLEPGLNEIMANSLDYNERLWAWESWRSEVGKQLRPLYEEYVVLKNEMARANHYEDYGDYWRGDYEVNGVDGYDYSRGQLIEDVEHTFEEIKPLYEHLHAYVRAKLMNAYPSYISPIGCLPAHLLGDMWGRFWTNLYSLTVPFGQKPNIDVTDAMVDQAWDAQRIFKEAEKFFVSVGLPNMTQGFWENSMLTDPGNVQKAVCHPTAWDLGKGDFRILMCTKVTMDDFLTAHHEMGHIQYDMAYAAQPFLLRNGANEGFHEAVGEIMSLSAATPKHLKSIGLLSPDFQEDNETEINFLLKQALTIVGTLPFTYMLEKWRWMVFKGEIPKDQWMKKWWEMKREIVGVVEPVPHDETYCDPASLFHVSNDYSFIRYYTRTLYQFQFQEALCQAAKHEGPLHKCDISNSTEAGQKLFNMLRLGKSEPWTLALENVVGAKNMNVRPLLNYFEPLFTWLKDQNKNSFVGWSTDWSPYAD

[4] = target: extracellular catalytic domain of human angiotensin-converting enzyme 2 (hACE2), produced in mammalian cells (human, UniProt Q9BYF1 19-615); assay: ITC; MicroCal iTC200, 25 °C, 100 mM Tris pH 7.4, 200 mM NaCl; hACE2 in the cell (6 or 7 uM), peptide in the syringe (60 or 70 uM); single-site model; conditions: both partners purified
extracellular catalytic domain of human angiotensin-converting enzyme 2 (hACE2), produced in mammalian cells, sequence (Q9BYF1 19-615): as above

[5] = target: T1, human angiotensin-converting enzyme 1 …; assay: enzyme inhibition assay; conditions: both partners purified

B1: synthetic 'two-ring' macrocyclic peptide GR3.1.2 (isomer of GR3.1) (peptide)
peptide: ACFLRCHRDVKCWLWCSG
modifications: also: two-ring macrocycle, isomer of GR3.1, ring type and connectivity not given here
Question: How did the IC50 [1] turn out when B1 was run?
Answer: Its IC50 is over 100 µM.

Question: With ACFFIGFNRWICSG (also: one-ring macrocycle, ring type and places not given here) [synthetic 'one-ring' macrocyclic peptide GR1.1] as the binder, how does the IC50 [1] read?
Answer: The IC50 was over 100 µM.

Question: How did the Ki [2] turn out when ACFFIGFNRWICSG (also called synthetic GR1.1) [GR1.1, synthetic one-ring macrocyclic peptide] was run?
Answer: Its Ki is over 100 µM.

Question: For ACEPLGFNRWICSG (also: one-ring macrocycle, closure not given here) [yeast-displayed 'one-ring' macrocyclic peptide GR1.3], which Kd [3] is on record?
Answer: The Kd was 0.0538 µM.

Question: For ACEPLGYNLFLCSG (also called synthetic GR1.4) [GR1.4, synthetic one-ring macrocyclic peptide], which Ki [2] is on record?
Answer: Its Ki is over 100 µM.

Question: Which “stoichiometry N” value [4] does the source give for ACEPLGYNLFLCSG (also: one-ring macrocycle, ring type and places not given here) [synthetic 'one-ring' macrocyclic peptide GR1.4] here?
Answer: The value was 1.4 sites.

Question: What about the IC50 [1] of the same binder?
Answer: Its IC50 is over 100 µM.

Question: ACFLRCHRDVKCWLWCSG (also called synthetic GR3.1.2) [GR3.1.2, synthetic isomer 2 of the two-ring macrocyclic peptide GR3.1] was tested. Which Ki [2] did it give?
Answer: Its Ki is over 100 µM.

Question: What does the source list for GDYSHCSPLRYYPWWKCTYPDPEGGG (disulfide 6-17 (inferred), source: bought: Selleck Chemicals LLC) [DX600, disulfide-constrained cyclic peptide inhibitor of hACE2]?
Answer: IC50 [5]: > 100 µM; Ki [5]: > 100 µM
